In experiment [1] the target is Recombinant human IL-17A (human) (UniProt Q16552). Description: SPR, ProteOn XPR36. (SPR reads the build-up and loss of mass on a sensor chip optically.)
The target is the same in experiment [2]. Description: SPR as for KD.
The target is the same in experiment [3]. Description: SPR, IL-17A immobilised, Fab as analyte.
Experiment [4] shares this target. Kind of experiment: SPR.
Experiment [5] has as its target CR8071 lambda light chain E124Q_T131R (L1 of designs 3971, 3972 and 3987, system C). Kind of experiment: SMCA: H1, L1, H2, L2 co-expressed, protein A, LC-MS.
Experiment [6] addresses CR8071 lambda light chain L1 E124Q_T131R (designs 3971 and 3972, System C). The description is as above.
In experiment [7] the target is CR8071 lambda light chain L1 with E124Q_T131K. Description: SMCA System C: four chains co-expressed, protein A, LC-MS.
For experiment [8], the target named is Pertuzumab kappa light chain S131K_V133G_S176R_T178A (L2), HA-tagged. Description: LCCA, SPR of light-chain tags.
Experiment [9] concerns the target Pertuzumab kappa light chain S131R_V133G_S176R_T178A (L2), HA-tagged. Description: LCCA, SPR of light-chain tags.
Experiment [10] has the same target. Kind of experiment: LCCA, SPR of light-chain tags. This is another data set of the same source.
Experiment [11] concerns the target Pertuzumab kappa light chain L135A (L2), N-terminal HA tag. Description: LCCA, SPR of light chain tags.
The target of experiment [12] is CAT-2200 lambda light chain T116F_S176F (L1), N-terminal FLAG tag. Kind of experiment: LCCA, SPR of light chain tags.
The target in experiment [13] is Pertuzumab kappa light chain L135A (L2), N-terminal HA tag. Description: LCCA, SPR of light chain tags. The source holds these as a separate data set.
The target of experiment [14] is Pertuzumab kappa light chain T178F (L2), N-terminal HA tag. Kind of experiment: LCCA, SPR of light chain tags.
The target in experiment [15] is Pertuzumab kappa light chain, wild type (L2), N-terminal HA tag. Kind of experiment: LCCA, SPR of light chain tags.
In experiment [16] the target is Pertuzumab kappa light chain Q124E_V133D (L2), N-terminal HA tag. Description: LCCA, SPR of light chain tags.
Experiment [17] has as its target CAT-2200 lambda light chain S176K_Y178K (L1), N-terminal FLAG tag. Description: LCCA, SPR of light chain tags.
The target of experiment [18] is CAT-2200 lambda light chain S176K_Y178R (L1), N-terminal FLAG tag. Kind of experiment: LCCA, SPR of light chain tags.
Experiment [19] addresses Pertuzumab kappa light chain Q124E_V133D (L2), N-terminal HA tag. Kind of experiment: LCCA, SPR of light chain tags. This is another data set of the same source.
For experiment [20] the target is unchanged. Kind of experiment: LCCA, SPR of light chain tags. The source holds these as a separate data set.
In experiment [21] the target is Pertuzumab kappa light chain Q124E_Q160E_T180E (L2), N-terminal HA tag. Kind of experiment: LCCA, SPR of light chain tags.
The target in experiment [22] is CAT-2200 lambda light chain S176K_Y178L (L1), N-terminal FLAG tag. Kind of experiment: LCCA, SPR of light chain tags.
Experiment [23] concerns the target Pertuzumab kappa light chain Q124E_Q160E_T180E (L2), N-terminal HA tag. Kind of experiment: LCCA, SPR of light chain tags. This is another data set of the same source.
The target is the same in experiment [24]. Kind of experiment: LCCA, SPR of light chain tags. This is another data set of the same source.
In experiment [25] the target is Pertuzumab kappa light chain S176V (L2), N-terminal HA tag. Kind of experiment: LCCA, SPR of light chain tags.
Experiment [26] deals with Recombinant HER2 protein (HER2-ECD) (UniProt P04626). Description: SPR, ProteOn XPR36.
The target is the same in experiment [27]. Kind of experiment: SPR as for KD.
The target is the same in experiment [28]. Description: SPR, Fab captured via anti-penta-His, HER2 as analyte.
Experiment [29] has the same target. Kind of experiment: SPR.

pKd: −log10 of the molar value. Values joined by “and” are separate entries in the source; they are usually repeats but may differ in a detail not shown here. Equal entries are not always repeated. Where two headings read alike, the source gives them in different places.

Broadly, the pKd is the Kd on a negative log10 scale, so that one unit is a factor of ten.

For the substance “CAT-2200 Fab, H1 K145T_V177T_S188E / L1 Y178K”, the negative-log Kd (pKd) in [1] is 9.68. In addition, the Change in KD of H1L1 Fab vs wild type, -(log(KD design)-log(KD wt)) in experiment [2] turned out to be 0.11 log units.

Regarding “CAT-2200 Fab, H1 L124E_V190D / L1 V133I_L135K_Y178F”, the Change in KD of H1L1 Fab vs wild type, -(log(KD design)-log(KD wt)) in experiment [2] was -3.56 log units.

Regarding “CAT-2200 Fab, H1 L143D_K145T / L1 E124Q_T131K”, the pKd in experiment [1] is 9.66. The Change in KD of H1L1 Fab vs wild type, -(log(KD design)-log(KD wt)) in experiment [2] was found to be 0.1 log units.

Turning to “CAT-2200 designed Fab heterodimer H1L1: H1 L143E_K145T_Q179E / L1 E124Q_T131R”, the negative-log Kd (pKd) in [3] is 9.54. In [4], the Change in KD of H1L1 Fab vs wild type was -0.14.

For “CAT-2200 designed Fab heterodimer H1L1: H1 L143K / L1 K129T_V133D”, the pKd in [3] is 9.59. Further, the Change in KD of H1L1 Fab vs wild type in [4] was -0.09.

As to “CAT-2200 designed Fab heterodimer H1L1: H1 Q179K / L1 K129T_S180E”, the negative-log Kd (pKd) in experiment [3] is 9.62. Besides, in [4], the Change in KD of H1L1 Fab vs wild type was -0.056.

As to “CAT-2200 designed Fab heterodimer H1L1: H1 S186R / L1 K129T_S180E”, the pKd in experiment [3] is 9.59. Further, the Change in KD of H1L1 Fab vs wild type in experiment [4] is -0.088.

On to “CR8071 heavy chain A139W_L143D_K145T (H1 of designs 3972 and 3987, system C)”, for which, in [5], the % H1L1 Pairing is 92.8% and 99.2%; the Change in % H1L1 Pairing with respect to wild type is 44.4% and 50.8%.

As to “CR8071 heavy chain H1 A139W_L143D_K145T (design 3972, System C)”, in experiment [6], the % H1L1 Pairing is 92.8% and the Change in % H1L1 Pairing with respect to wild type came to 44.4%.

Regarding “CR8071 heavy chain H1 L143D_K145T (design 3971, System C)”, in experiment [6], the % H1L1 Pairing was determined as 89% and the Change in % H1L1 Pairing with respect to wild type amounted to 40.6%.

Regarding CR8071 heavy chain H1 with L143D_K145T, in experiment [7], the % H1L1 Pairing turned out to be 79.7% and the Change in % H1L1 Pairing with respect to wild type stood at 11.6%.

In experiment [7], “CR8071 heavy chain H1 with L143E_K145T_Q179E” returned a % H1L1 Pairing of 84.7% and a Change in % H1L1 Pairing with respect to wild type of 36.3%.

In [5], “CR8071 heavy chain L143D_K145T (H1 of design 3971, system C)” gave a % H1L1 Pairing of 89% and a Change in % H1L1 Pairing with respect to wild type of 40.6%.

On to “Pertuzumab Fab heavy chain L124E_K145T_Q179E_S186I_S188W (H2)”, for which the H2L2:H2L1 normalized median scalar value ln(r1/f1) is 0.9 in experiment [8], 1.24 in experiment [9] and 1.55 in experiment [10].

Consider “Pertuzumab Fab heavy chain L143I_V190F (H2), ABD2-His6 tagged”, for which the H2L2:H2L1 normalized median ratio in experiment [11] turned out to be 46%; in [12] it was 38%; in experiment [13], 49%; in experiment [14] it was 65%; in [15], 62%. Further, the H2L2:H2L1 normalized median scalar value ln(r1/f1) was -0.16 in experiment [11], -0.04 in [13], 0.62 in experiment [14] and 0.49 in [15].

As for “Pertuzumab Fab heavy chain L143R (H2), ABD2-His6 tagged”, the H2L2:H2L1 normalized median ratio turned out to be 86% in experiment [16]; 21% in experiment [17]; 14% in experiment [18]; 79% in experiment [19]; 82% in experiment [20]. Also, the H2L2:H2L1 normalized median scalar value ln(r1/f1) in experiment [16] was found to be 1.84; in [19], 1.3; in experiment [20], 1.53.

Regarding “Pertuzumab Fab heavy chain Q179K (H2), ABD2-His6 tagged”, the H2L2:H2L1 normalized median ratio worked out at 96% in [21]; 9% in experiment [17]; 13% in [22]; 4% in experiment [18]; 91% in experiment [23]; 87% in [24]. Moreover, the results for the H2L2:H2L1 normalized median scalar value ln(r1/f1) in experiment [21], in experiment [23] and in experiment [24] were 3.21, 2.33 and 1.88, respectively.

As for “Pertuzumab Fab heavy chain S186I_S188W (H2), ABD2-His6 tagged”, in [25], the H2L2:H2L1 normalized median ratio was 40% and the H2L2:H2L1 normalized median scalar value ln(r1/f1) is -0.39.

On to “Pertuzumab Fab heavy chain S186L_S188W (H2), ABD2-His6 tagged”, for which, in experiment [25], the H2L2:H2L1 normalized median ratio stood at 40% and the H2L2:H2L1 normalized median scalar value ln(r1/f1) was -0.39.

“Pertuzumab Fab heavy chain S186R (H2), ABD2-His6 tagged”: the H2L2:H2L1 normalized median ratio in experiment [21] worked out at 97%; in experiment [17] it was 4%; in experiment [22] it was 11%; in experiment [23], 96%; in experiment [24] it was 89%. The H2L2:H2L1 normalized median scalar value ln(r1/f1) in [21] is 3.46; in experiment [23] it was 3.29; in experiment [24] it was 2.07.

On to “Pertuzumab Fab, H2 L124R / L2 V133G_S176D”, for which the pKd in experiment [26] is 8.08. Moreover, in experiment [27], the Change in KD of H2L2 Fab vs wild type, -(log(KD design)-log(KD wt)) is -0.01 log units.

Consider “Pertuzumab Fab, H2 L143K / L2 Q124E_V133D”, for which, in experiment [26], the negative-log Kd (pKd) is 8.13. Also, in [27], the Change in KD of H2L2 Fab vs wild type, -(log(KD design)-log(KD wt)) came to 0.04 log units.

For Pertuzumab Fab, H2 S186K / L2 V133D, in experiment [26], the negative-log Kd (pKd) is 8.10. Also, in experiment [27], the Change in KD of H2L2 Fab vs wild type, -(log(KD design)-log(KD wt)) came out at 0 log units.

Turning to “Pertuzumab Fab, H2 S188K / L2 S131D_V133G_T178F”, the pKd in [26] was 8.07. For the same substance, the Change in KD of H2L2 Fab vs wild type, -(log(KD design)-log(KD wt)) in experiment [27] is -0.02 log units.

On to “Pertuzumab Fab, H2 S188K / L2 S176E_T178E”, for which the pKd in [26] is 8.09. Further, the Change in KD of H2L2 Fab vs wild type, -(log(KD design)-log(KD wt)) in [27] is 0 log units.

Take “Pertuzumab designed Fab heterodimer H2L2: H2 L45P_L124E_K145T_Q179E / L2 P44F_S131R_V133G_S176R”: the pKd in experiment [28] is 8.24.

Turning to “Pertuzumab designed Fab heterodimer H2L2: H2 L45P_L143E_K145T_Q179E / L2 P44F_Q124K_T178R”, the negative logarithm of the Kd (pKd) in experiment [28] was 8.22.

In the case of “Pertuzumab designed Fab heterodimer H2L2: H2 Q39E_L124E_K145T_Q179E / L2 Q38R_S131R_V133G_S176R”, the pKd in experiment [28] is 8.10. In addition, the Change in KD of H2L2 Fab vs wild type in [29] was -0.0084.

With “Pertuzumab designed Fab heterodimer H2L2: H2 Q39E_L143E_K145T_Q179E / L2 Q38R_Q124K_T178R”, the pKd in [28] is 8.13. Also, the Change in KD of H2L2 Fab vs wild type in experiment [29] was found to be 0.023.

Values taken from patent US20190338048A1.
